Laboratory results reported in PMC9932110.
One block for each substance: values may come before it.

Columns and labels:
[1] = target: Armc8β (mouse); experiment: native gel or EMSA; blue native PAGE of Armc8β
[2] = target: Armc8β (mouse); experiment: SEC-MALS; Armc8β alone, dilution series from two purifications; molar mass at the peak against peak concentration, one-site and two-site models; monomer to dimer and higher
[3] = target: muskelin (rat) (UniProt Q99PV3); experiment: ITC; ITC-200, 25 °C, 20 mM tricine pH 8.0, 150 or 200 mM NaCl, 1 mM TCEP; 50-150 μM in the syringe, 10 times lower in the cell; one-site model
[4] = target: Wdr26 (mouse) (UniProt Q8C6G8); experiment: as above
[5] = target: Armc8β (mouse); experiment: as above
[6] = target: Armc8β (mouse); experiment: SEC-MALS; Twa1, Armc8β and their mixture at low concentrations
[7] = target: Twa1–Armc8β complex (mouse) (UniProt Q9D7M1); experiment: SEC-MALS; Tβ complex, dilution series; molar mass at the peak against peak concentration, one-site model; Tβ heterodimer to higher order oligomers

Wdr26 (mouse), sequence (Q8C6G8 other isoform, or with tags, fused parts or gaps): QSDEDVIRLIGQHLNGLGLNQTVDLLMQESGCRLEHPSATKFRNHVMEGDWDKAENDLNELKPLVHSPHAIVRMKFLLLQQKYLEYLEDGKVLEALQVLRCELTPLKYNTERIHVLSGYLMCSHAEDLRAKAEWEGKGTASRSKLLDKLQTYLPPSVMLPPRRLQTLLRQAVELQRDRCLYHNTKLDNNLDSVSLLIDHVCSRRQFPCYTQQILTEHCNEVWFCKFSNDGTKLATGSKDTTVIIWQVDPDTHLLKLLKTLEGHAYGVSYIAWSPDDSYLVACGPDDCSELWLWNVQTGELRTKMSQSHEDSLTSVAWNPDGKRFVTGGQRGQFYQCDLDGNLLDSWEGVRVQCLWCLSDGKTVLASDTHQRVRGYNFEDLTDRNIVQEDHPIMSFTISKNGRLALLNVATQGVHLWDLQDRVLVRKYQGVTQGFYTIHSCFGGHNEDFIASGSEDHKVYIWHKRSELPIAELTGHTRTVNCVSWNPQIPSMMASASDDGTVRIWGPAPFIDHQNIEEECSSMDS
muskelin (rat), sequence (Q99PV3 whole entry): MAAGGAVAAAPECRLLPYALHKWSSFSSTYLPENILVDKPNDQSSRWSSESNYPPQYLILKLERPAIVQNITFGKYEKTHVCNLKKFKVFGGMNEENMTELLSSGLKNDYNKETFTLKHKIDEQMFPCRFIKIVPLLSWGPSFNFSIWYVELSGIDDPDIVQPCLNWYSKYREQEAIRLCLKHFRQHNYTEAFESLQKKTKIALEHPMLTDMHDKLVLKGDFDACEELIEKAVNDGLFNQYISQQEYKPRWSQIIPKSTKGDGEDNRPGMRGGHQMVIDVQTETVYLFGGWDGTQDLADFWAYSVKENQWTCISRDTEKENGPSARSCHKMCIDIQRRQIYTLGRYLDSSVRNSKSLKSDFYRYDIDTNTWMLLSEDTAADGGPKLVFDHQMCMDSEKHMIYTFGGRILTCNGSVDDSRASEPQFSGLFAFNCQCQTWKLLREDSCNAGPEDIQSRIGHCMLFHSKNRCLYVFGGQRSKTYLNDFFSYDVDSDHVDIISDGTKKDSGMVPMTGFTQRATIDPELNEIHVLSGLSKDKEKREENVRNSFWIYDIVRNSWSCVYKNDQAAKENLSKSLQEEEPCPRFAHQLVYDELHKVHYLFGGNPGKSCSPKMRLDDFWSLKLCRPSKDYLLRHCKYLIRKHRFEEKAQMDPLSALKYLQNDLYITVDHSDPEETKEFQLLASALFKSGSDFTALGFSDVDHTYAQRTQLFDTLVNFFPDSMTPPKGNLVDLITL
Twa1, sequence (Q9D7M1 whole entry): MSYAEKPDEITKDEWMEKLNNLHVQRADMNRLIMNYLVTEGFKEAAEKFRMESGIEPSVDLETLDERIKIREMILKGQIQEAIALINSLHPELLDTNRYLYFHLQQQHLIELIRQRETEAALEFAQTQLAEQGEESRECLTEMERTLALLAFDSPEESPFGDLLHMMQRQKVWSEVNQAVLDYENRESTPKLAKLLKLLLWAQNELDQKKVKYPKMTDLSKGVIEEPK

stoichiometry N [1]: 3
KD high (two-site binding model) [2]: 1800 nM
KD low (two-site binding model) [2]: > 40000 nM
Kd [2]: 5100 nM
stoichiometry N [2]: 1 to 2
Substance: Armc8β (natural protein)

Kd [3]: 1.7 nM
stoichiometry N [3]: 1
Kd [4]: 3.4 nM
stoichiometry N [4]: 0.95
Kd [5]: 8.1 nM
Substance: RanBP9–Twa1 complex (from UniProt P69566 1-653; Q9D7M1 1-228)

stoichiometry N [6]: 1
Kd [5]: 34.4 nM
Substance: Twa1 (from UniProt Q9D7M1 1-228) (natural protein)

Kd [7]: 6200 nM
stoichiometry N [7]: 8.2
Substance: Twa1–Armc8β complex (from UniProt Q9D7M1 1-228)
